The values below come from US7378503 (dated 2008).

Numbering of substitutions follows the chain as printed.

The target in assay [1] is IGF-IR extracellular domain (human, UniProt P08069). The assay can be described thus: SPR. In general terms: SPR reads the build-up and loss of mass on a sensor chip optically.
The target of the next assay is rat IGF-IR (rat, UniProt P24062). The assay can be described thus: other, immunoprecipitation.
The target of a further assay is mouse IGF-IR (mouse, UniProt Q60751). Description: other, immunoprecipitation.
mouse IGF-IR, sequence (Q60751 31-936): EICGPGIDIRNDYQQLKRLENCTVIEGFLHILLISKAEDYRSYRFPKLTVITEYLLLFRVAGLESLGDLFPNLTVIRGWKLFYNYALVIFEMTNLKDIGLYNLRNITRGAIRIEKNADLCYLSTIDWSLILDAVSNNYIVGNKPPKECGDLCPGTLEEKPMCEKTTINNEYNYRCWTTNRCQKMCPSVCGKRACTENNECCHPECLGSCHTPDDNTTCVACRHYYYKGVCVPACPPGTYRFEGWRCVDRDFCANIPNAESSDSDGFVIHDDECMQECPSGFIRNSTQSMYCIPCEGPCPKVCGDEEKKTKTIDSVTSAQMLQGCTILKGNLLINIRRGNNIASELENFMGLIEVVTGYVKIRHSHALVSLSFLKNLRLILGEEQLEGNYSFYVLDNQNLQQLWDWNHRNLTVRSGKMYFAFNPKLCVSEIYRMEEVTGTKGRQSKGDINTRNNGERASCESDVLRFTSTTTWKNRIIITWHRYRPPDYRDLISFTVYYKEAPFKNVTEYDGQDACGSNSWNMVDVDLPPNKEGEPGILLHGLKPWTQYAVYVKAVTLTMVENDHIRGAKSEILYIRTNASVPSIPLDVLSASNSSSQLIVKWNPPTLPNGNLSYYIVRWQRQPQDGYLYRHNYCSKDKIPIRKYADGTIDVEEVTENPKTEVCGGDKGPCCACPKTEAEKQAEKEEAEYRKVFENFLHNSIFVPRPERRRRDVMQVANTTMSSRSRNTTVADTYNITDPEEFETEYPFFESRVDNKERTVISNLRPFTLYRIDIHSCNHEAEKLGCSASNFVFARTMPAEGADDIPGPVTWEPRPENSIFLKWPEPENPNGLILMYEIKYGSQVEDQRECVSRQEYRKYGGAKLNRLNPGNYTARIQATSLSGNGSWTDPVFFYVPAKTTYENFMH

rat IGF-IR, sequence (P24062 31-936): as the sequence (Q60751 31-936) above, with D271G, Y629F, M714L counted along it

B1: Antibody 23 (antibody, V domains shown)
VH: EVQLVQSGGGLVHPGGSLRLSCAGSGFTFSNYAMYWVRQAPGKGLEWVSAIGSGGGTYYADSVKGRFTISRDNAKNSLYLQMNSLRAEDMAVYHCARAPNWGSEAFDIWGQGTMVTVSS
VL: DIQMTQSPSSLSASVGDRVTITCRASQGISSWLAWYQQKPEKAPKSLIYAASSLQSGVPSRFSGSGSGTDFTLTISSLQPEDFATYYCQQYNSYPITFGQGTRLEIK
Usually Kd stands for the free concentration of one partner at which half of the binding sites on the other are occupied at equilibrium, for simple one-to-one binding. Low readings indicate a tighter complex, high ones a looser complex. Consider B1, for which the Kd in assay [1] turned out to be 194 pM.

B2: Antibody 8 (antibody, V domains shown)
VH: B1 VH with S30R, N31S, H94Y, E104D
VL: B1 VL with I96P, Q100P, R103K, L104V, E105D
For the molecule B2, the Kd in assay [1] turned out to be 2010 pM.

B3: Antibody 1A (antibody, V domains shown)
VH: B1 VH with S30R, H94Y, E104D
VL: B1 VL with I96P, Q100P, R103K, L104V, E105D
B3: binding in assay [1] was characterised by a dissociation constant (Kd) of 397 pM. Moreover, the binding result in the assay with rat IGF-IR and with mouse IGF-IR was “no binding” in each case.
